Results from patent publication US20230270636A1, “GOLD AND PALMITOYL PENTAPEPTIDE-4 NANOPARTICLES” (INFINITEC ACTIVOS, S.L., priority 2018, published 2023).
Where a SMILES comes first, the peptide text is derived from it. Where no end group is shown, it is not given here. The star is where a group is joined. Palmitoyl = CCCCCCCCCCCCCCCC(=O)*

Columns and labels:
[1] = Cutaneous penetration using Franz diffusion cells; format: in vitro ADME; settings: pig skin, 20 h incubation; for Cutaneous penetration (skin layers reached): 32° C., receptor solution analysed; for Change in cutaneous penetration upon conjugating the peptide with gold nanoparticles: FIG. 1
Experimental: Cutaneous penetration was determined using Franz cells. The pig skin samples used in the experiments were cut into circles 3 cm in diameter. The pig skin was mounted on the receptor compartment of a Franz diffusion cell system with the stratum corneum facing up towards the donor compartment. 18 ml of phosphate-buffered saline (PBS) were used as receptor solution. An aliquot of the test samples (nanoparticles of Example 1 (GNP-P1), nanoparticles of Example 2 (GNP-P2), nanoparticles of Example 3 (GNP), formulation of peptide P1 of Example 4, formulation of peptide P2 of Example 5, mixture of nanoparticles and peptide P1 (GNP+P1) of Example 6 was applied on the pig skin. The Franz diffusion cells were mounted on an H+P Labortechnik Varimag Telesystem (Munich, Germany) and placed in a thermostatic bath (Haake).
Untreated skin control was also included. The Franz diffusion cells were kept at 32° C., and after 20 h of incubation, the receptor solution was analyzed by means of UV-visible absorption spectroscopy using a Shimadzu spectrophotometer UV-1800 (Parc Cientific of Barcelona) and quartz cuvettes (Hellma Analytics) to quantify the amount of gold nanoparticles present (GNP, GNP-P1, and GNP-P2). The amount of free peptide (P1, P2) was determined by means of HPLC, using a Waters 996 photodiode array detector instrument equipped with a Waters 2695 separation module and Millenium software. An Xbridge BEH130 C18 4.6×100 mm 3.5 μm reverse phase HPLC column by Waters was used. In both cases, UV detection was performed at 220 nm. Peptide P1 was analyzed with a mobile phase B gradient of 5 to 100% for 8 minutes at a flow rate of 1.0 ml/min, the retention time being 6.5 minutes. Peptide P2 was analyzed with a mobile phase B gradient of 0 to 20% for 8 minutes at a flow rate of 1.0 ml/min, the retention time being 1.5 minutes. The eluents used in both cases were: Mobile phase A: 0.045% of TFA/H2O, mobile phase B: 0.036% of TFA/ACN.

[2] = Nanoparticle size by dynamic light scattering (DLS); format: physicochemical; settings: 1 mg/mL in water, 25° C.
Experimental: The size of the nanoparticles can be determined by means of conventional methods in the art, particularly by means of dynamic light scattering (DLS). First the samples are prepared to determine particle size. To that end, 1 mg is weighed if it is powder and it is suspended in 1 mL of milli-Q H2O. In the case of liquid samples, a 100 μL aliquot of the sample to which 900 μL of milli-Q H2O are added is collected with an automatic pipette. Then the particle size measurement is taken using quartz cuvettes and Zetasizer Nano ZS series equipment (Malvern Instruments) of the Instituto de Quimica Avanzada de Cataluña (Advanced Chemistry Institute of Catalonia), CSIC.
The size of the nanoparticles (GNP, GNP-P1, and GNP-P2) was determined by dynamic light scattering (DLS) for which quartz cuvettes and Zetasizer Nano ZS series equipment (Malvern Instruments, Instituto de Quimica Avanzada de Cataluña) were used. The preparation of the samples consists of 1 mg if it is powder and it is suspended in 1 mL of milli-Q H2O. In the case of liquid samples, a 100 μL aliquot of the sample to which 900 μL of milli-Q H2O are added is collected with an automatic pipette such that there is always a concentration of 1 mg/mL of sample. Then the particle size measurement is taken at a temperature of 25° C.

[3] = Zeta potential of nanoparticles (Zetasizer Nano ZS); format: physicochemical; settings: 1 mg/mL in water, 25° C.
Experimental: The preparation of the samples for determining the Z potential consists of weighing 1 mg if it is powder and it is suspended in 1 mL of milli-Q H2O. Whereas in the case of liquid samples, a 100 μL aliquot of the sample to which 900 μL of milli-Q H2O are added is collected with an automatic pipette. Then the Z potential measurement is taken using DTS1070 plastic cuvettes and Zetasizer Nano ZS series equipment (Malvern Instruments) of the Instituto de Quimica Avanzada de Cataluña (Advanced Chemistry Institute of Catalonia), CSIC.
The Z potential of the nanoparticles synthesized was determined using DTS1070 plastic cuvettes and Zetasizer Nano ZS series equipment (Malvern Instruments, of the Instituto de Quimica Avanzada de Cataluña, CSIC). The preparation of the samples consists of 1 mg if it is powder and it is suspended in 1 mL of milli-Q H2O. In the case of liquid samples, a 100 μL aliquot of the sample to which 900 μL of milli-Q H2O are added is collected with an automatic pipette such that there is always a concentration of 1 mg/mL of sample. Then the Z potential measurement is taken at a temperature of 25° C.

[4] = Concentration of peptide incorporated in nanoparticles by HPLC; format: physicochemical; settings: UV 220 nm
Experimental: The concentration of the peptide (P1 or P2) incorporated in the nanoparticles (GNP-P1 and/or GNP-P2) was determined by HPLC, using a Waters 996 photodiode array detector instrument equipped with a Waters 2695 separation module and Millenium software. An Xbridge BEH130 C18 4.6×100 mm 3.5 μm reverse phase HPLC column by Waters was used. UV detection was performed at 220 nm, and a mobile phase B gradient of 5 to 100% was performed for 8 minutes at a flow rate of 1.0 ml/min. Under these conditions, the retention time being 6.4 min for both peptides P1 and P2. Mobile phase A: 0.045% of TFA/H2O, mobile phase B: 0.036% of TFA/ACN.

Compound	Cutaneous penetration (skin layers reached) [1]	Nanoparticle diameter [2]	Nanoparticle Zeta potential [3] [mV]	Change in cutaneous penetration upon conjugating the peptide with gold nanoparticles [1]	Maximum concentration of peptide in nanoparticles [4] [mg/mL]
CCCCCCCCCCCCCCCC(=O)N[C@@H](CCCCN)C(=O)N[C@H](C(=O)N[C@H](C(=O)N[C@@H](CCCCN)C(=O)N[C@@H](CO)C(=O)O)[C@@H](C)O)[C@@H](C)O [Example P1, Palm-L-Lys-L-Thr-L-Thr-L-Lys-L-Ser-OH] (Palmitoyl-KTTKS-OH)	only penetrated the outermost layers external of the skin				
GNP − P1: gold nanoparticles conjugated with the peptide of formula (I) wherein R is a palmitoyl moiety (Palm-SEQ ID NO: 1) (Palmitoyl-KTTKS; also: conjugated to gold nanoparticles)	penetration reached more internal layers such as the epidermis and dermis	150-200 nm	−35	considerable increase in penetration	0.3
GNP − P2: gold nanoparticles conjugated with the peptide of formula (II) (P2; Palm-SEQ ID NO: 2) (Palmitoyl-CKTTKSCTTKS; cysteine pairing not given here; also: conjugated to gold nanoparticles)		150-200 nm	−59		0.3
Palm-L-Cys-L-Lys-L-Thr-L-Thr-L-Lys-L-Ser-L-Cys-L-Thr-L-Thr-L-Lys-L-Ser-OH [Example P2]				increase in penetration is not observed	
